Data reported in PMC10328077 (2023).

B1: FH402Y, isolated from plasma of FH402Y homozygous healthy donors (natural protein)
chain: EDCNELPPRRNTEILTGSWSDQTYPEGTQAIYKCRPGYRSLGNVIMVCRKGEWVALNPLRKCQKRPCGHPGDTPFGTFTLTGGNVFEYGVKAVYTCNEGYQLLGEINYRECDTDGWTNDIPICEVVKCLPVTAPENGKIVSSAMEPDREYHFGQAVRFVCNSGYKIEGDEEMHCSDDGFWSKEKPKCVEISCKSPDVINGSPISQKIIYKENERFQYKCNMGYEYSERGDAVCTESGWRPLPSCEEKSCDNPYIPNGDYSPLRIKHRTGDEITYQCRNGFYPATRGNTAKCTSTGWIPAPRCTLKPCDYPDIKHGGLYHENMRRPYFPVAVGKYYSYYCDEHFETPSGSYWDHIHCTQDGWSPAVPCLRKCYFPYLENGYNQNYGRKFVQGKSIDVACHPGYALPKAQTTVTCMENGWSPTPRCIRVKTCSKSSIDIENGFISESQYTYALKEKAKYQCKLGYVTADGETSGSITCGKDGWSAQPTCIKSCDIPVFMNARTKNDFTWFKLNDTLDYECHDGYESNTGSTTGSIVCGYNGWSDLPICYERECELPKIDVHLVPDRKKDQYKVGEVLKFSCKPGFTIVGPNSVQCYHFGLSPDLPICKEQVQSCGPPPELLNGNVKEKTKEEYGHSEVVEYYCNPRFLMKGPNKIQCVDGEWTTLPVCIVEESTCGDIPELEHGWAQLSSPPYYYGDSVEFNCSESFTMIGHRSITCIHGVWTQLPQCVAIDKLKKCKSSNLIILEEHLKNKKEFDHNSNIRYRCRGKEGWIHTVCINGRWDPEVNCSMAQIQLCPPPPQIPNSHNMTTTLNYRDGEKVSVLCQENYLIQEGEEITCKDGRWQSIPLCVEKIPCSQPPQIEHGTINSSRSSQESYAHGTKLSYTCEGGFRISEENETTCYMGKWSSPPQCEGLPCKSPPEISHGVVAHMSDSYQYGEEVTYKCFEGFGIDGPAIAKCLGEKWSHPPSCIKTDCLSLPSFENAIPMGEKKDVYKAGEQVTYTCATYYKMDGASNVTCINSRWTGRPTCRDTSCVNPPTVQNAYIVSRQMSKYPSGERVRYQCRSPYEMFGDEEVMCLNGNWTEPPQCKDSTGKCGPPPPIDNGDITSFPLSVYAPASSVEYQCQNLYQLEGNKRITCRNGQWSEPPKCLHPCVISREIMENYNIALRWTAKQKLYSRTGESVEFVCKRGYRLSSRSHTLRTTCWDGKLEYPTCAKR
B2: recombinant N-terminal fragment apoE2(1–165) (domain or fragment)
chain: KVEQAVETEPEPELRQQTEWQSGQRWELALGRFWDYLRWVQTLSEQVQEELLSSQVTQELRALMDETMKELKAYKSELEEQLTPVAEETRARLSKELQAAQARLGADMEDVCGRLVQYRGEVQAMLGQSTEELRVRLASHLRKLRKRLLRDADDLQKCLAVYQAG
modifications: NT647 dye (Monolith RED-NHS labelling kit) in the MST; unlabelled in the ELISA and the cross-linking

Key:
[1] = biological target: B2; assay: MST
[2] = biological target: FH402H, isolated from plasma of FH402H homozygous healthy donors (human, UniProt P08603 19-1231, Y402H); assay: MST

Row | Kd [1] [nM] | Kd [2] [nM] | Binder
1 | 200 | – | B1
2 | – | 400 | B2
